Our source for the Kd values is the Immune Epitope Database (IEDB).

Some results are limits rather than exact numbers.

One experiment concerns the target HLA-A*31:01. The experiment can be described thus: IEDB peptide-MHC binding, purified MHC/competitive/fluorescence; filed as Kd, often an IC50 or EC50 that approximates it; ≥ and ≤ were set here for values at or beyond the usual limits of such assays.
The target of experiment [1] is HLA-A*03:01. Described as above.
In a further experiment the target is HLA-A*02:03. The experiment is described as follows: IEDB peptide-MHC binding, purified MHC/direct/fluorescence; filed as Kd, often an IC50 or EC50 that approximates it; ≥ and ≤ were set here for values at or beyond the usual limits of such assays.
The target of another experiment is HLA-A*02:16. Described as above.
For the next experiment, the target named is HLA-A*11:01. Described as above.
The target in experiment [2] is HLA-A*03:01. The description is as above.
The target of the next experiment is HLA-A*24:03. Described as above.
A further experiment concerns the target HLA-A*02:11. Described as above.
A further experiment deals with HLA-A*23:01. The description is as above.
The next experiment deals with HLA-A*02:12. The description is as above.
Another experiment addresses HLA-A*29:02. Described as above.
A further experiment has as its target HLA-A*02:19. The experiment is described as above.
The target in a further experiment is HLA-B*46:01. The experiment can be described thus: IEDB peptide-MHC binding, purified MHC/competitive/fluorescence; filed as Kd, often an IC50 or EC50 that approximates it; ≥ and ≤ were set here for values at or beyond the usual limits of such assays.
The next experiment has as its target HLA-B*27:03. The experiment is described as above.
The target of another experiment is HLA-B*51:01. Described as above.
A further experiment concerns the target HLA-A*02:01. Described as above.
The target of a further experiment is HLA-A*26:01. The experiment is described as above.
The next experiment deals with HLA-B*39:01. The experiment is described as above.
Another experiment addresses HLA-B*57:01. The experiment is described as above.
The next experiment deals with HLA-B*18:01. Described as above.
A further experiment deals with HLA-A*69:01. The experiment is described as above.
In the next experiment the target is HLA-A*01:01. The experiment can be described thus: IEDB peptide-MHC binding, purified MHC/direct/fluorescence; filed as Kd, often an IC50 or EC50 that approximates it; ≥ and ≤ were set here for values at or beyond the usual limits of such assays. To be noted: source organism: Reston ebolavirus.
The next experiment deals with HLA-A*68:02. Described as above.
A further experiment has as its target HLA-B*15:01. The experiment is described as follows: IEDB peptide-MHC binding, purified MHC/competitive/fluorescence; filed as Kd, often an IC50 or EC50 that approximates it; ≥ and ≤ were set here for values at or beyond the usual limits of such assays.
In the next experiment the target is HLA-B*15:17. Described as above.
Where [3] appears, read: source organism: Escherichia coli 536.
[4] abbreviates: source organism: Encephalitozoon cuniculi GB-M1.
The mark [5] stands for this setting: source organism: Listeria welshimeri serovar 6b str. SLCC5334.
[6] abbreviates: source organism: Zaire ebolavirus.
The mark [7] stands for this setting: source organism: Reston ebolavirus.
The mark [8] stands for this setting: source organism: dengue virus type 1.
The mark [9] stands for this setting: source organism: Burkholderia mallei.
[10] abbreviates: source organism: Vibrio vulnificus YJ016.
Where [11] appears, read: source organism: Toxoplasma gondii.

Take AVIVWLLLR: the dissociation constant Kd with HLA-A*31:01 (setting [3]) was 743 nM; with HLA-A*03:01 [1] (setting [3]) it was no less than 20000 nM.

Take EAYCALLCK: the Kd in the experiment with HLA-A*02:03 (setting [4]) was no less than 20 µM; in the experiment with HLA-A*02:16 (setting [4]), no less than 20 µM; in the experiment with HLA-A*11:01 (setting [4]), no less than 20000 nM; with HLA-A*03:01 [2] (setting [4]), no less than 20000 nM; with HLA-A*24:03 (setting [4]) it was no less than 20 µM; in the experiment with HLA-A*02:11 (setting [4]) it was no less than 20 µM. Also, the Kd in the experiment with HLA-A*23:01 (setting [4]), with HLA-A*02:12 (setting [4]), in the experiment with HLA-A*29:02 (setting [4]), with HLA-A*02:19 (setting [4]), with HLA-B*46:01 (setting [4]) and with HLA-B*27:03 (setting [4]) was no less than 20 µM each time. The dissociation constant Kd with HLA-B*51:01 (setting [4]), in the experiment with HLA-A*02:01 (setting [4]), with HLA-A*26:01 (setting [4]), in the experiment with HLA-B*39:01 (setting [4]), with HLA-B*57:01 (setting [4]) and in the experiment with HLA-B*18:01 (setting [4]) was no less than 20 µM throughout. This sequence also yielded a Kd with HLA-A*69:01 (setting [4]) of no less than 20 µM.

Regarding GVALRSTYR, the equilibrium dissociation constant (Kd) in the experiment with HLA-A*03:01 [2] (source organism: Mycobacterium tuberculosis) was 1810 nM; with HLA-A*31:01 (source organism: Mycobacterium tuberculosis H37Ra), 9.3 nM.

KVGHVGLYR: the Kd came out at 19.6 nM with HLA-A*31:01 (setting [5]) and 46 nM in the experiment with HLA-A*03:01 [1] (setting [5]).

In the case of LSDAARLFL, the Kd is no less than 20 µM with HLA-A*02:03 (setting [6]); no less than 20 µM in the experiment with HLA-A*02:16 (setting [6]); no less than 20000 nM in the experiment with HLA-A*03:01 [2] (setting [6]); no less than 20 µM with HLA-A*24:03 (setting [6]); no less than 20 µM with HLA-A*02:11 (setting [6]); 303 nM with HLA-A*01:01. Also, the Kd in the experiment with HLA-A*68:02 (setting [6]), with HLA-A*23:01 (setting [6]), in the experiment with HLA-A*02:12 (setting [6]), with HLA-A*29:02 (setting [6]), with HLA-A*02:19 (setting [6]) and with HLA-B*46:01 (setting [6]) was no less than 20 µM each time. For the same sequence, the dissociation constant (Kd) with HLA-B*27:03 (setting [6]), with HLA-B*51:01 (setting [6]), in the experiment with HLA-A*02:01 (setting [6]), with HLA-A*26:01 (setting [6]), with HLA-B*15:01 (setting [6]) and with HLA-B*39:01 (setting [6]) was no less than 20 µM throughout. The Kd in the experiment with HLA-B*57:01 (setting [6]), with HLA-B*18:01 (setting [6]) and with HLA-A*69:01 (setting [6]) was no less than 20 µM throughout.

Regarding RTYSLLNRK, the dissociation constant (Kd) is no less than 20 µM with HLA-A*02:03 (setting [7]); no less than 20 µM with HLA-A*02:16 (setting [7]); 144 nM with HLA-A*03:01 [2] (source organism: Reston ebolavirus - Reston); no less than 20 µM in the experiment with HLA-A*24:03 (setting [7]); no less than 20 µM with HLA-A*02:11 (setting [7]); no less than 20 µM in the experiment with HLA-A*68:02 (setting [7]). The Kd with HLA-A*23:01 (setting [7]) was no less than 20 µM; with HLA-A*02:12 (setting [7]), no less than 20 µM; in the experiment with HLA-A*29:02 (setting [7]), no less than 20 µM; in the experiment with HLA-A*02:19 (setting [7]), no less than 20 µM; with HLA-A*31:01 (setting [7]), 15.5 nM; with HLA-B*46:01 (setting [7]), no less than 20 µM. Besides, the equilibrium dissociation constant (Kd) with HLA-B*15:17 (setting [7]), in the experiment with HLA-B*27:03 (setting [7]), in the experiment with HLA-B*51:01 (setting [7]), in the experiment with HLA-A*02:01 (setting [7]), in the experiment with HLA-A*26:01 (setting [7]) and in the experiment with HLA-B*15:01 (setting [7]) was no less than 20 µM in each case. Moreover, the Kd with HLA-B*39:01 (setting [7]), with HLA-B*57:01 (setting [7]), in the experiment with HLA-B*18:01 (setting [7]) and with HLA-A*69:01 (setting [7]) was no less than 20 µM in each case.

Turning to SSADLSLEK, the equilibrium dissociation constant (Kd) in the experiment with HLA-A*11:01 (setting [8]) is 2.7 nM; with HLA-A*31:01 (setting [8]) it was no less than 20000 nM.

As to TGHPWITFK, the Kd came to 116 nM in the experiment with HLA-A*11:01 (setting [9]), 945 nM with HLA-A*03:01 [2] (setting [9]) and 48.2 nM in the experiment with HLA-A*31:01 (source organism: Cupriavidus metallidurans CH34).

On to TSCAPMMQK, for which the equilibrium dissociation constant (Kd) in the experiment with HLA-A*02:03 (setting [10]) was no less than 20 µM; in the experiment with HLA-A*02:16 (setting [10]) it was no less than 20 µM; with HLA-A*11:01 (setting [10]) it was 6 nM; with HLA-A*24:03 (setting [10]), no less than 20 µM; in the experiment with HLA-A*02:11 (setting [10]), no less than 20 µM; with HLA-A*68:02 (setting [10]) it was no less than 20 µM. Further, the Kd in the experiment with HLA-A*23:01 (setting [10]), with HLA-A*02:12 (setting [10]), with HLA-A*02:19 (setting [10]), with HLA-B*46:01 (setting [10]), in the experiment with HLA-B*27:03 (setting [10]) and with HLA-B*51:01 (setting [10]) was no less than 20 µM throughout. Besides, the Kd with HLA-A*02:01 (setting [10]), with HLA-A*26:01 (setting [10]), with HLA-B*39:01 (setting [10]), with HLA-B*57:01 (setting [10]), in the experiment with HLA-B*18:01 (setting [10]) and with HLA-A*69:01 (setting [10]) was no less than 20 µM each time.

Regarding VLDCRTAFK, the figures for the Kd in the experiment with HLA-A*11:01 (source organism: Yellow fever virus 17D) and in the experiment with HLA-A*31:01 (source organism: Yellow fever virus) were 109 nM and 772 nM, respectively.

VSSHKGWAK: the Kd with HLA-A*02:03 (setting [11]) was no less than 20 µM; in the experiment with HLA-A*02:16 (setting [11]), no less than 20 µM; with HLA-A*11:01 (setting [11]) it was 2 nM; with HLA-A*03:01 [2] (setting [11]), no less than 20000 nM; with HLA-A*24:03 (setting [11]), no less than 20 µM; with HLA-A*02:11 (setting [11]) it was no less than 20 µM. In addition, the dissociation constant (Kd) in the experiment with HLA-A*68:02 (setting [11]), with HLA-A*23:01 (setting [11]), in the experiment with HLA-A*02:12 (setting [11]), with HLA-A*02:19 (setting [11]), in the experiment with HLA-B*46:01 (setting [11]) and with HLA-B*15:17 (setting [11]) was no less than 20 µM in each case. For the same sequence, the Kd with HLA-B*27:03 (setting [11]), in the experiment with HLA-B*51:01 (setting [11]), with HLA-A*02:01 (setting [11]), with HLA-A*26:01 (setting [11]), with HLA-B*39:01 (setting [11]) and in the experiment with HLA-B*57:01 (setting [11]) was no less than 20 µM each time. In the experiment with HLA-A*69:01 (setting [11]), this sequence returned a Kd of no less than 20 µM.
